# B1: mRNA-splicing (parent)
# chain: AGUUGCUGCUGGGAGCUCCAGCACAGUGAAAUGGACAGAAGGGCAGAGCAA
# Variants of: B1
# Assay: exon inclusion enrichment index; higher = more inclusion; WT1 exon 5 minigene, HEK293
row,Variant,exon inclusion enrichment index
1,C6A U7A C9A U10A A37C G38A,0.719
2,G5A U7C G8A U10C G15A,2.02
3,G5A C6U U7A C9A,0.0715
4,G5A C6U U7A G8U C9A C22A A23U,0.0397
5,C6A U7A C9A U10A G38C,0.524
6,G5A C6G U7G C9A G11A G12A,0.00145
7,G5U G8U C9U A25U,0.289
8,C6A U7C C9A U10C A31G U32C,4.39
9,C6A U7C C9A U10C A31G U32A,5.2
10,G5C C6A U7C G8A U10A G34C A35U,0.0152
11,U17G C18G,0.0429
12,G5A C6G U7G C9A G15U C16U,0.000743
13,C6U C9A U10A,0.198
14,C6A U7C C9A U10C G26A U27A,2.91
15,A25C G26U,0.368
16,G5C C6A U7C G8A U10A G41A G42A,0.101
17,G5U G8U C9U C44G A45C,0.346
18,G5C C6A U7C G8A U10A C18A,0.0467
19,G5A C6U U7A G8U C9A A45G G46C,0.131
20,G2A G5C C6G U7C U10C,3.98
21,U27C G28A,0.0654

row,Variant,exon inclusion enrichment index
1,A31U U32A,0.00762
2,U3A U4C G5A C6U U7A G8U C9A,0.3
3,C6A U7A C9A U10A A31U U32G,0.311
4,C6A U7A C9A U10A C22U,0.414
5,G5A C6U U7A G8U C9A G43C C44G,1.01
6,G5A C6G U7G C9A G43A C44G,0.0259
7,G5U G8U C9U G12A G13C,0.0118
8,G5U G8U C9U G12A G13A,0.0133
9,G5A C6U U7A G8U C9A G21A C22A,0.0256
10,G5A C6U U7A G8U C9A G21A C22U,0.021
11,C6A U7A C9A U10A C36G,0.433
12,C6A U7C C9A U10C G34U,1.52
13,G5A C6G U7G C9A A39G A40C,0.00397
14,G5C C6U G8C C9U U10C G28U,0.486
15,G5A U7C G8A U10C C44U A45G,1.53
16,U4A G5A G8U C9U,0.144
17,G5A C6G U7G C9A A47G G48U,0.000624
18,G5A C6G U7G C9A A47G G48C,0.000801
19,U3A U4G G5A U7C G8A U10C,3.06
20,G5C C6U G8C C9U U10C A39C,0.436
21,G5C C6U G8C C9U U10C C44U A45U,1.28

row,Variant,exon inclusion enrichment index
1,G5C C6G U7C U10C G43C,2.7
2,C6A U7A C9A U10A A37U G38U,0.112
3,G5A U7C G8A U10C G34U A35G,0.753
4,C6A U7A C9A U10A A37G,1.54
5,G5C C6U U7G G8C C9U U10C,1.54
6,C6A U7C C9A U10C C24G A25G,2.34
7,G5C C6U G8C C9U U10C G13C A14G,1.94
8,C6A U7C C9A U10C C16U U17A,2.9
9,G5A C6U U7A G8U C9A A31C,0.077
10,G5A U7C G8A U10C A20U,2.38
11,G5U G8U C9U A35C,0.0257
12,G5C C6A U7C G8A U10A C24A A25G,0.156
13,G5C C6A U7C G8A U10A C24A A25C,0.742
14,G5C C6G U7C U10A G11U,3.26
15,G5A C6G U7C U10C,0.952
16,C6A U7A C9A U10A A39G A40C,1.22
17,G5A U7C G8A U10C A14C G15A,0.731
18,G5A C6G U7G C9A G46C,0.00111
19,C6A U7C C9A U10C U17G,2.68
20,G5U G8U C9U G41U G42U,0.11
21,G5U G8U C9U G41U G42A,0.0453

row,Variant,exon inclusion enrichment index
1,G5C C6A U7C G8A U10A A47G,0.0221
2,C6A U7A C9A U10A C16A U17A,0.501
3,G5U G8U C9U G43U C44U,0.0283
4,G5A C6A U7C G8U C9A,0.165
5,G5A C6G U7G C9A C22G,0.00114
6,G5A U7C G8A U10C C16G U17C,1.06
7,C6A U7C C9A U10C A37U G38C,2.21
8,G5C C6A U7C G8A C9A U10A,0.239
9,G5A C6U U7A G8U C9A G48U,0.114
10,C6A U7A C9A U10A A30G A31C,0.0339
11,G5C C6U G8C C9U U10C G15C C16A,1.75
12,U32G G33U,0.0308
13,U32G G33C,0.143
14,G5C C6A U7C G8A U10A C44U A45G,0.0445
15,G5C C6G G8A U10C,2.37
16,G5A C6U U7A G8U C9A C24G A25C,0.392
17,G5A C6U U7A G8U C9A C24G A25G,0.0168
18,G5A U7C G8A U10C A37U G38C,1.52
19,U4A G5C,0.183
20,G5C C6U G8C C9U U10C C36U A37U,1.12

# Source: the RNAGym collection of RNA variant scans (doi:10.1101/gr.219683.116)
